Data reported in paper PMC8313134, “Jasmonate‐ and abscisic acid‐activated AaGSW1‐AaTCP15/AaORA transcriptional cascade promotes artemisinin biosynthesis in Artemisia annua”.

Tests used:
Conditions in all cases: protein: recombinant; tags: His-TF (trigger factor), pCold-TF; chain copies: 2; blunt
AaTCP15 [1] = biological target: T1, AaTCP15 (Artemisia annua, UniProt A0A8E3YC86 1-384); assay: EMSA; cold Dq competitor reduces shift; not given; EMSA as described in Ma et al. 2018; cold competitor 10x, 20x, 40x
AaTCP15 [2] = biological target: T1, AaTCP15; assay: EMSA; not given; EMSA as described in Ma et al. 2018; cold competitor 10x, 20x, 40x
AaTCP15 [3] = biological target: T1, AaTCP15; assay: EMSA; cold Aq competitor reduces shift; not given; EMSA as described in Ma et al. 2018; cold competitor 10x, 20x, 40x

T1 sequence (A0A8E3YC86 entry or part of it): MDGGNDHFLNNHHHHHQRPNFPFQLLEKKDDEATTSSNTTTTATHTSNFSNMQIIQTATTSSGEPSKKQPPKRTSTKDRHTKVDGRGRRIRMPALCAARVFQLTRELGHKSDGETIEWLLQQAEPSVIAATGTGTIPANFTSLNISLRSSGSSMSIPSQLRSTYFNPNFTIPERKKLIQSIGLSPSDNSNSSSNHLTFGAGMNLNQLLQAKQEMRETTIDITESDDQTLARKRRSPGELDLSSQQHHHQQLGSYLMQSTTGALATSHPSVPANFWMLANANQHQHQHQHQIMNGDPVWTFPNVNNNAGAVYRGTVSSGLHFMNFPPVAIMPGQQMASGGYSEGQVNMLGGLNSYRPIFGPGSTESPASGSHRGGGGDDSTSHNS

B1: Dq probe (DBR2 promoter) (dsDNA)
DNA 1: GTCGCTAAACTTGCCACGGTCCCACTTTTTCAACTCTTATTA
DNA 2: TAATAAGAGTTGAAAAAGTGGGACCGTGGCAAGTTTAGCGAC
- binding result (AaTCP15 [1]): binds

B2: Dq mutated probe (dsDNA)
DNA 1: GTCGCTAAACTTGCCACGGTAAACATTTTTCAACTCTTATTA
DNA 2: TAATAAGAGTTGAAAAATGTTTACCGTGGCAAGTTTAGCGAC
- binding result (AaTCP15 [2]): no binding

B3: Aq probe (ALDH1 promoter) (dsDNA)
DNA 1: GGTTGGTTGCATTATCTGGCCCCACCGTAAACAATCAAATGC
DNA 2: GCATTTGATTGTTTACGGTGGGGCCAGATAATGCAACCAACC
- binding result (AaTCP15 [3]): binds
